Data published in article PMC12416549 (2024).
Changes are numbered by the printed parent chain. Names and notes keep the numbering of the source.

B1: K71P (designed binder)
chain: SMEEEVEKAAKEYEKKKKEAIEKHLEKLKAKDKEAAERFLKELEEAAKEYAKDEAKTMSEEEAKRRAKKYPEKVLLSELSEEEQKEIKEAEEKLVRTILKYVEEAAK
B2: A9W (designed binder)
chain: B1 chain with A9W, P71K
B3: M2C (designed binder)
chain: B1 chain with M2C, P71K
B4: Y70C (designed binder)
chain: B1 chain with Y70C, P71K
B5: Y13E (designed binder)
chain: B1 chain with Y13E, P71K
B6: K31H (designed binder)
chain: B1 chain with K31H, P71K
B7: E49W (designed binder)
chain: B1 chain with E49W, P71K
B8: V95Y (designed binder)
chain: B1 chain with P71K, V95Y
B9: E86R (designed binder)
chain: B1 chain with P71K, E86R
B10: K56C (designed binder)
chain: B1 chain with K56C, P71K
B11: E89P (designed binder)
chain: B1 chain with P71K, E89P
B12: E104Q (designed binder)
chain: B1 chain with P71K, E104Q
B13: K11D (designed binder)
chain: B1 chain with K11D, P71K
B14: K56P (designed binder)
chain: B1 chain with K56P, P71K
B15: K100F (designed binder)
chain: B1 chain with P71K, K100F
B16: K15W (designed binder)
chain: B1 chain with K15W, P71K
B17: E5K (designed binder)
chain: B1 chain with E5K, P71K
B18: R66G (designed binder)
chain: B1 chain with R66G, P71K
B19: E72T (designed binder)
chain: B1 chain with P71K, E72T
B20: K33P (designed binder)
chain: B1 chain with K33P, P71K
B21: D53T (designed binder)
chain: B1 chain with D53T, P71K
B22: M58C (designed binder)
chain: B1 chain with M58C, P71K
B23: E44T (designed binder)
chain: B1 chain with E44T, P71K
B24: R96H (designed binder)
chain: B1 chain with P71K, R96H
B25: A106E (designed binder)
chain: B1 chain with P71K, A106E
B26: I21T (designed binder)
chain: B1 chain with I21T, P71K
B27: E103F (designed binder)
chain: B1 chain with P71K, E103F
B28: A46M (designed binder)
chain: B1 chain with A46M, P71K
B29: A10C (designed binder)
chain: B1 chain with A10C, P71K
B30: S1P (designed binder)
chain: B1 chain with S1P, P71K
B31: V6T (designed binder)
chain: B1 chain with V6T, P71K
B32: I21S (designed binder)
chain: B1 chain with I21S, P71K
B33: V6H (designed binder)
chain: B1 chain with V6H, P71K
B34: E82Q (designed binder)
chain: B1 chain with P71K, E82Q
B35: K18E (designed binder)
chain: B1 chain with K18E, P71K
B36: K64W (designed binder)
chain: B1 chain with K64W, P71K
B37: K73F (designed binder)
chain: B1 chain with P71K, K73F
B38: R38V (designed binder)
chain: B1 chain with R38V, P71K
B39: K88S (designed binder)
chain: B1 chain with P71K, K88S
B40: Y50R (designed binder)
chain: B1 chain with Y50R, P71K
B41: E103C (designed binder)
chain: B1 chain with P71K, E103C
B42: K11P (designed binder)
chain: B1 chain with K11P, P71K
B43: K64A (designed binder)
chain: B1 chain with K64A, P71K
B44: Y70F (designed binder)
chain: B1 chain with Y70F, P71K
B45: E104A (designed binder)
chain: B1 chain with P71K, E104A
B46: T97N (designed binder)
chain: B1 chain with P71K, T97N
B47: A9K (designed binder)
chain: B1 chain with A9K, P71K
B48: K8M (designed binder)
chain: B1 chain with K8M, P71K
B49: S77L (designed binder)
chain: B1 chain with P71K, S77L
B50: K107Y (designed binder)
chain: B1 chain with P71K, K107Y
B51: K85V (designed binder)
chain: B1 chain with P71K, K85V
B52: V95Q (designed binder)
chain: B1 chain with P71K, V95Q
B53: A10P (designed binder)
chain: B1 chain with A10P, P71K
B54: K27H (designed binder)
chain: B1 chain with K27H, P71K
B55: E37T (designed binder)
chain: B1 chain with E37T, P71K
B56: V74Y (designed binder)
chain: B1 chain with P71K, V74Y
B57: E12H (designed binder)
chain: B1 chain with E12H, P71K
B58: A20K (designed binder)
chain: B1 chain with A20K, P71K
B59: V95H (designed binder)
chain: B1 chain with P71K, V95H

Target: T1, TNFR1 (Homo sapiens, UniProt P19438)
T1 chain: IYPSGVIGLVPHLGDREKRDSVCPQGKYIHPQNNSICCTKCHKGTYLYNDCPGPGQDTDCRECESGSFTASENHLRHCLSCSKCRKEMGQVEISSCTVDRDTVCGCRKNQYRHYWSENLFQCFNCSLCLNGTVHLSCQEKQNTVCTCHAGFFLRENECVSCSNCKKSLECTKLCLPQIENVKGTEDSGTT
Assay: yeast display SC50

Binder	apparent Kd (screen) [nM]
B1	11.4
B2	3
B3	2.73
B4	7.78
B5	1.54
B6	0.446
B7	16.7
B8	3
B9	0.593
B10	10.4
B11	10.4
B12	1.05
B13	0.446
B14	24.4
B15	1.27
B16	1.16
B17	0.446
B18	7.07
B19	1.27
B20	0.593

Binder	apparent Kd (screen) [nM]
B21	2.73
B22	2.73
B23	0.956
B24	2.48
B25	1.27
B26	0.49
B27	1.05
B28	0.117
B29	1.05
B30	0.539
B31	0.49
B32	0.446
B33	0.446
B34	0.49
B35	1.86
B36	0.446
B37	15.2
B38	2.48
B39	0.49
B40	2.25

Binder	apparent Kd (screen) [nM]
B41	7.78
B42	18.3
B43	0.956
B44	12.5
B45	0.79
B46	1.16
B47	0.446
B48	1.05
B49	7.07
B50	2.73
B51	1.05
B52	11.4
B53	11.4
B54	0.446
B55	0.539
B56	9.41
B57	0.49
B58	0.446
B59	11.4
